Assay [1] addresses BmTFF3 (β-subunit of βγ-CAT) (Bombina maxima (endogenous in skin secretions)).
The target of assay [2] is Bombina maxima IgG Fc-binding protein (FCGBP) (Bombina maxima (endogenous in skin secretions)). Kind of assay: BLI; FCGBP (10 μg/ml, 0.01 M sodium acetate pH 4.0) amine-coupled to AR2G biosensors; βγ-CAT 1000-31.25 nM in PBS, association 300 s, dissociation 180 s; global fit, 1:1 binding model. Background: Biolayer interferometry detects binding as a change in optical thickness at a sensor tip.

pKd: −log10 of the molar value.

Take “BmALP1 (α-subunit of βγ-CAT) (natural protein)”: the dye release from calcein liposomes (fluorescence at 518 nm, % of maximum) by BmALP1 polymer (50 nM) with BmTFF3 (200 nM) and FCGBP at 25, 50 and 150 nM in assay [1] is 76.8%.
Regarding βγ-CAT complex (BmALP1 and BmTFF3), the pKd in assay [2] is 7.67.

By pKd is commonly meant the Kd on a negative log10 scale, so that one unit is a factor of ten. A lower pKd goes with a high Kd.

(Values after paper PMC10206775.)
